Assay results reported in article PMC3510498.
Blank lines part the entries; values can stand above or below the substance they belong to.

Legend:
[1] = target: Thermoanaerobacter tengcongensis RecO (Thermoanaerobacter tengcongensis MB4) (UniProt Q8RB48); experiment: SPR; Biacore3000, 25°C; TTERecO amine-coupled to CM5 chip (4900 RU); TTERecR and mutants injected (0.0125-4 µM), 20 mM HEPES pH 7.4, 200 mM NaCl, 0.005% Tween 20; 1:1 Langmuir model; apparent KD
[2] = target: Thermoanaerobacter tengcongensis RecO (Thermoanaerobacter tengcongensis MB4) (UniProt Q8RB48); experiment: SEC + AUC; SEC: Superdex-200, 0.5 ml/min, 50 mM Tris-HCl pH 7.5, 300 mM NaCl, 200 µg/ml; AUC: 20°C, 1 mg/ml in 5 mM Tris-HCl pH 7.5, 50 mM NaCl, 60 000 rpm (TTERecR, TTERecO) or 55 000 rpm (TTERecOR complex), SEDFIT
[3] = target: Thermoanaerobacter tengcongensis RecR, full-length (Thermoanaerobacter tengcongensis MB4) (UniProt Q8RDI4); experiment: as above
[4] = target: TTERecR_(1-180) C-terminal deletion mutant (Thermoanaerobacter tengcongensis MB4) (UniProt Q8RDI4); experiment: SEC; Superdex-200, 0.5 ml/min, 50 mM Tris-HCl pH 7.5, 300 mM NaCl, 200 µg/ml, absorbance at 280 nm
[5] = target: TTERecR_(1-166) C-terminal deletion mutant (Thermoanaerobacter tengcongensis MB4) (UniProt Q8RDI4); experiment: as above
[6] = target: TTERecR_(16-196) N-terminal deletion mutant (Thermoanaerobacter tengcongensis MB4) (UniProt Q8RDI4); experiment: as above

- Kd [1]: 186 nM
- stoichiometry N (RecR per RecO) [2]: 2
- stoichiometry N [3]: 2
Substance: Thermoanaerobacter tengcongensis RecR, full-length (from UniProt Q8RDI4 1-199) (natural protein)

- stoichiometry N [4]: 2
- Kd [1]: 1480 nM
Substance: TTERecR_(1-180) C-terminal deletion mutant (from UniProt Q8RDI4 1-180) (domain or fragment)

- stoichiometry N [5]: 2
- Kd [1]: 359 nM
Substance: TTERecR_(1-166) C-terminal deletion mutant (from UniProt Q8RDI4 1-166) (domain or fragment)

- stoichiometry N [6]: 2
Substance: TTERecR_(16-196) N-terminal deletion mutant (from UniProt Q8RDI4 16-196) (domain or fragment)
